Positions of bridges follow the written chain, without caps; N, C: chain ends. Non-standard residues stand in square brackets, D forms with d. Sar = CNCC(=O)O
Target: Human C3 (Complement tech cat #A113c) (human, UniProt P01024 23-1663)
Assay: cell-based or functional assay

Sequence of Human C3 (Complement tech cat #A113c) (P01024 23-1663 limits assumed): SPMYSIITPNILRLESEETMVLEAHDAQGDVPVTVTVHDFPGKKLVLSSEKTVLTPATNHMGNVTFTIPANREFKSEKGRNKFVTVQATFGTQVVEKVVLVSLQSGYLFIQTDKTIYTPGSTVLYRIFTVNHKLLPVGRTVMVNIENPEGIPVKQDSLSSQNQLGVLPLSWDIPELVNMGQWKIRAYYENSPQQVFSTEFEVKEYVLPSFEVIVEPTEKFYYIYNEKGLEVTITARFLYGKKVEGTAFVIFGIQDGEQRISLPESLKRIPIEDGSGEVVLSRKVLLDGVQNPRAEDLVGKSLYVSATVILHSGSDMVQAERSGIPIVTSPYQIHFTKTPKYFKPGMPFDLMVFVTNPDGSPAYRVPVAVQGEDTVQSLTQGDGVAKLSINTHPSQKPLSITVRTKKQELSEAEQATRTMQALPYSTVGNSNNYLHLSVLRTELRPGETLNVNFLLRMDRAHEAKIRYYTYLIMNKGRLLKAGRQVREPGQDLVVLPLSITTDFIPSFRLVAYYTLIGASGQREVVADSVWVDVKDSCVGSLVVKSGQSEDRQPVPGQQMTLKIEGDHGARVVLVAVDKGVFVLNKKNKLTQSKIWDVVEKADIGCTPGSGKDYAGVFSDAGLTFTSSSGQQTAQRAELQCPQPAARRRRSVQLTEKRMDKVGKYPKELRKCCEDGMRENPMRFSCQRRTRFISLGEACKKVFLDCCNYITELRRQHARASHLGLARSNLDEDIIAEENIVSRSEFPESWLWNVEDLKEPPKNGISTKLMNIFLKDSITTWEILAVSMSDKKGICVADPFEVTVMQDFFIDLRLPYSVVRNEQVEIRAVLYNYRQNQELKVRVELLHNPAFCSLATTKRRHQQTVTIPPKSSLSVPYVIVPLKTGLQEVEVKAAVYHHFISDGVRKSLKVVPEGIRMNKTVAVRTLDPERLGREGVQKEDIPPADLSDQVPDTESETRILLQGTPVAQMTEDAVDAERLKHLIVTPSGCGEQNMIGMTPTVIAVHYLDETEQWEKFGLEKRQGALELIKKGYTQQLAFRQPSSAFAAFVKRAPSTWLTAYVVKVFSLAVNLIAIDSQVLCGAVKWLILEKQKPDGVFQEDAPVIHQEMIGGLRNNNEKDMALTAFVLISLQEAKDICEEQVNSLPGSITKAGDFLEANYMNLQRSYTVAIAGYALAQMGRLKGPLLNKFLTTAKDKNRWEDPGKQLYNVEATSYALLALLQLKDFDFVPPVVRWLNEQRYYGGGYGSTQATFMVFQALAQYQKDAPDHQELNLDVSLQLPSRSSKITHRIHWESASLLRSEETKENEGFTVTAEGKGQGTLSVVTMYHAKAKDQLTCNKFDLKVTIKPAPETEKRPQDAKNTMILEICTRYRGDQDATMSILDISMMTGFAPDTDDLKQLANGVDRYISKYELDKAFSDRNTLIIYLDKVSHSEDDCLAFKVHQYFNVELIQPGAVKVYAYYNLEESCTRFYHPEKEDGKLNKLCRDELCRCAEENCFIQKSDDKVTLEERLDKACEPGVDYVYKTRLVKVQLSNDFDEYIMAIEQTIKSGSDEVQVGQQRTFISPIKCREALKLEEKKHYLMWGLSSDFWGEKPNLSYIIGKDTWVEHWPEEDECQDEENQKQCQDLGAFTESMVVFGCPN

Binder | inhibition of hemolysis IC50
Ac-GSAICIWQDWGEHRC[Sar]E-NH2 (disulfide 5-15; SMILES CC[C@H](C)[C@H](NC(=O)[C@H](C)NC(=O)[C@H](CO)NC(=O)CNC(C)=O)C(=O)N[C@H]1CSSC[C@@H](C(=O)N(C)CC(=O)N[C@@H](CCC(=O)O)C(N)=O)NC(=O)[C@H](CCCNC(=N)N)NC(=O)[C@H](Cc2c[nH]cn2)NC(=O)[C@H](CCC(=O)O)NC(=O)CNC(=O)[C@H](Cc2c[nH]c3ccccc23)NC(=O)[C@H](CC(=O)O)NC(=O)[C@H](CCC(N)=O)NC(=O)[C@H](Cc2c[nH]c3ccccc23)NC(=O)[C@H]([C@@H](C)CC)NC1=O) [Compound 40] | < 0.25 µM
Ac-ESEICIWQDWGEHRCEGE-NH2 (disulfide 5-15; SMILES CC[C@H](C)[C@@H]1NC(=O)[C@@H](NC(=O)[C@@H](NC(=O)[C@H](CCC(=O)O)NC(=O)[C@H](CO)NC(=O)[C@H](CCC(=O)O)NC(C)=O)[C@@H](C)CC)CSSC[C@@H](C(=O)N[C@@H](CCC(=O)O)C(=O)NCC(=O)N[C@@H](CCC(=O)O)C(N)=O)NC(=O)[C@H](CCCNC(=N)N)NC(=O)[C@H](Cc2c[nH]cn2)NC(=O)[C@H](CCC(=O)O)NC(=O)CNC(=O)[C@H](Cc2c[nH]c3ccccc23)NC(=O)[C@H](CC(=O)O)NC(=O)[C@H](CCC(N)=O)NC(=O)[C@H](Cc2c[nH]c3ccccc23)NC1=O) [Compound 36] | < 0.25 µM
Ac-KEKICIWQDWGEHRCTEKE-NH2 (disulfide 5-15; SMILES CC[C@H](C)[C@@H]1NC(=O)[C@@H](NC(=O)[C@@H](NC(=O)[C@H](CCCCN)NC(=O)[C@H](CCC(=O)O)NC(=O)[C@H](CCCCN)NC(C)=O)[C@@H](C)CC)CSSC[C@@H](C(=O)N[C@H](C(=O)N[C@@H](CCC(=O)O)C(=O)N[C@@H](CCCCN)C(=O)N[C@@H](CCC(=O)O)C(N)=O)[C@@H](C)O)NC(=O)[C@H](CCCNC(=N)N)NC(=O)[C@H](Cc2c[nH]cn2)NC(=O)[C@H](CCC(=O)O)NC(=O)CNC(=O)[C@H](Cc2c[nH]c3ccccc23)NC(=O)[C@H](CC(=O)O)NC(=O)[C@H](CCC(N)=O)NC(=O)[C@H](Cc2c[nH]c3ccccc23)NC1=O) [Compound 37] | < 0.25 µM
Ac-EGSAFCIWQDWGEHRC[Sar]E-NH2 (disulfide 6-16; SMILES CC[C@H](C)[C@@H]1NC(=O)[C@@H](NC(=O)[C@H](Cc2ccccc2)NC(=O)[C@H](C)NC(=O)[C@H](CO)NC(=O)CNC(=O)[C@H](CCC(=O)O)NC(C)=O)CSSC[C@@H](C(=O)N(C)CC(=O)N[C@@H](CCC(=O)O)C(N)=O)NC(=O)[C@H](CCCNC(=N)N)NC(=O)[C@H](Cc2c[nH]cn2)NC(=O)[C@H](CCC(=O)O)NC(=O)CNC(=O)[C@H](Cc2c[nH]c3ccccc23)NC(=O)[C@H](CC(=O)O)NC(=O)[C@H](CCC(N)=O)NC(=O)[C@H](Cc2c[nH]c3ccccc23)NC1=O) [Compound 45] | < 0.1 µM
Ac-SAICIWQDWGEHRCTEG-NH2 (disulfide 4-14; SMILES CC[C@H](C)[C@H](NC(=O)[C@H](C)NC(=O)[C@H](CO)NC(C)=O)C(=O)N[C@H]1CSSC[C@@H](C(=O)N[C@H](C(=O)N[C@@H](CCC(=O)O)C(=O)NCC(N)=O)[C@@H](C)O)NC(=O)[C@H](CCCNC(=N)N)NC(=O)[C@H](Cc2c[nH]cn2)NC(=O)[C@H](CCC(=O)O)NC(=O)CNC(=O)[C@H](Cc2c[nH]c3ccccc23)NC(=O)[C@H](CC(=O)O)NC(=O)[C@H](CCC(N)=O)NC(=O)[C@H](Cc2c[nH]c3ccccc23)NC(=O)[C@H]([C@@H](C)CC)NC1=O) [Compound 42] | < 0.25 µM
Ac-ICIWQDWGEHRCTEGK-NH2 (disulfide 2-12; SMILES CC[C@H](C)[C@H](NC(C)=O)C(=O)N[C@H]1CSSC[C@@H](C(=O)N[C@H](C(=O)N[C@@H](CCC(=O)O)C(=O)NCC(=O)N[C@@H](CCCCN)C(N)=O)[C@@H](C)O)NC(=O)[C@H](CCCNC(=N)N)NC(=O)[C@H](Cc2c[nH]cn2)NC(=O)[C@H](CCC(=O)O)NC(=O)CNC(=O)[C@H](Cc2c[nH]c3ccccc23)NC(=O)[C@H](CC(=O)O)NC(=O)[C@H](CCC(N)=O)NC(=O)[C@H](Cc2c[nH]c3ccccc23)NC(=O)[C@H]([C@@H](C)CC)NC1=O) [Compound 39] | < 0.1 µM
Ac-EKGICIWQDWGEHRCTEKP-NH2 (disulfide 5-15; SMILES CC[C@H](C)[C@H](NC(=O)CNC(=O)[C@H](CCCCN)NC(=O)[C@H](CCC(=O)O)NC(C)=O)C(=O)N[C@H]1CSSC[C@@H](C(=O)N[C@H](C(=O)N[C@@H](CCC(=O)O)C(=O)N[C@@H](CCCCN)C(=O)N2CCC[C@H]2C(N)=O)[C@@H](C)O)NC(=O)[C@H](CCCNC(=N)N)NC(=O)[C@H](Cc2c[nH]cn2)NC(=O)[C@H](CCC(=O)O)NC(=O)CNC(=O)[C@H](Cc2c[nH]c3ccccc23)NC(=O)[C@H](CC(=O)O)NC(=O)[C@H](CCC(N)=O)NC(=O)[C@H](Cc2c[nH]c3ccccc23)NC(=O)[C@H]([C@@H](C)CC)NC1=O) [Compound 38] | < 0.25 µM
Ac-EGSAICIWQDWGEHRC[Sar]EGE-NH2 (disulfide 6-16; SMILES CC[C@H](C)[C@H](NC(=O)[C@H](C)NC(=O)[C@H](CO)NC(=O)CNC(=O)[C@H](CCC(=O)O)NC(C)=O)C(=O)N[C@H]1CSSC[C@@H](C(=O)N(C)CC(=O)N[C@@H](CCC(=O)O)C(=O)NCC(=O)N[C@@H](CCC(=O)O)C(N)=O)NC(=O)[C@H](CCCNC(=N)N)NC(=O)[C@H](Cc2c[nH]cn2)NC(=O)[C@H](CCC(=O)O)NC(=O)CNC(=O)[C@H](Cc2c[nH]c3ccccc23)NC(=O)[C@H](CC(=O)O)NC(=O)[C@H](CCC(N)=O)NC(=O)[C@H](Cc2c[nH]c3ccccc23)NC(=O)[C@H]([C@@H](C)CC)NC1=O) [Compound 44] | < 0.25 µM
Ac-ESSAICIWQDWGAHRCT-NH2 (disulfide 6-16; SMILES CC[C@H](C)[C@H](NC(=O)[C@H](C)NC(=O)[C@H](CO)NC(=O)[C@H](CO)NC(=O)[C@H](CCC(=O)O)NC(C)=O)C(=O)N[C@H]1CSSC[C@@H](C(=O)N[C@H](C(N)=O)[C@@H](C)O)NC(=O)[C@H](CCCNC(=N)N)NC(=O)[C@H](Cc2c[nH]cn2)NC(=O)[C@H](C)NC(=O)CNC(=O)[C@H](Cc2c[nH]c3ccccc23)NC(=O)[C@H](CC(=O)O)NC(=O)[C@H](CCC(N)=O)NC(=O)[C@H](Cc2c[nH]c3ccccc23)NC(=O)[C@H]([C@@H](C)CC)NC1=O) [Compound 46] | < 0.1 µM
Ac-SAICIWQDWGEHRC[Sar]E-NH2 (disulfide 4-14; SMILES CC[C@H](C)[C@H](NC(=O)[C@H](C)NC(=O)[C@H](CO)NC(C)=O)C(=O)N[C@H]1CSSC[C@@H](C(=O)N(C)CC(=O)N[C@@H](CCC(=O)O)C(N)=O)NC(=O)[C@H](CCCNC(=N)N)NC(=O)[C@H](Cc2c[nH]cn2)NC(=O)[C@H](CCC(=O)O)NC(=O)CNC(=O)[C@H](Cc2c[nH]c3ccccc23)NC(=O)[C@H](CC(=O)O)NC(=O)[C@H](CCC(N)=O)NC(=O)[C@H](Cc2c[nH]c3ccccc23)NC(=O)[C@H]([C@@H](C)CC)NC1=O) [Compound 41] | < 0.25 µM

From patent publication US11965039B2, “Compstatin analogues and their medical uses” (priority 2018, dated 2024)
